Consider one molecule from US12571800B2, “Means and methods for treating angiogenesis-related diseases” (Heidelberg Biotech GmbH, priority 2011, dated 2026).

Like-named read-outs stand apart in the source and are kept apart here.

For data set [1] the following is noted: in vivo; cited from earlier work.
The next data set concerns Lewis Lung Cancer tumors. Nature of the data set: Sequential in-vivo passaging of LLC tumors under Fc-endostatin. Set-up: species or system C57/B16 mice. On the procedure: Dimerization of the NC-1 endostatin domains were achieved using IgG-Fc. […] Sequential in-vivo tumor passaging was performed to achieve prolonged and continuous exposure to anti-angiogenic therapy to enrich for the resistant tumor cell population.
Murine Lewis Lung Carcinoma (LLC) tumors were implanted s.c. into C57/B16 mice. Tumors were treated with a murine oligomeric-NC1 fragment, mFc-endostatin, at doses indicated. LLC tumors were exposed in-vivo for a prolonged period to mFc-endostatin by sequential transplantation of tumors (up to four passages, p4) once they evade therapy and reach a size of approximately 1000-2000 mm^3. Control tumors were also sequentially transplanted into new mice without mFc-endostatin treatment. Tumor volume was measured by caliper measurement (FIG. 8). After four passages, both mFc-endostatin resistant as well as control tumors were excised, total RNA was isolated and after QC hybridized on genome-wide microarrays for transcriptional analysis. Microarray data were analyzed using SUMO software package. Quantitative real-time RT-PCR was performed using Taqman technology to confirm the expression of candidate genes identified by microarray analysis.

For data set [2] the following is noted: in vivo, cited from earlier work.
For another data set, the system named is HUVECs. The experiment in a line: Immunofluorescence, endothelial cell surface binding. In kind it is cell-based, human. On the procedure:
HUVECs were incubated with Fc-endostatin and detected with Alexa 488 IgG or human NC-1 (hNC-1) trimer and detected by anti-His tag monoclonal antibody.
1.5 Immunocytochemistry. HUVECs were plated and grown on cover slips. […] The slips were incubated in the blocking buffer (2% BSA PBS) for 30 min. For hFc-endostatin or hFc groups, the slides were incubated with Alexa 488 antihuman IgG for imaging. For hNC-1 or IgG groups, the slides were incubated with mouse anti-His-tag monoclonal antibody, then probed by Alexa 488 anti-mouse IgG. Anti-fibronectin antibody (R&D) was used for secondary staining for all slides and probed by Alexa 594 anti-goat IgG and imaged by confocal-microscopy. DAPI counterstaining of nuclei is shown in blue.
2.3 Binding of oligomeric hFc-endostatin and hNC-1 to HUVECs. Immunoflourescence technique was employed to detect endothelial cell surface binding of oligomeric endostatin and NC-1.

The subject of a further data set is ASPC-1 xenograft. The experiment in a line: Immunofluorescence distribution in ASPC-1 xenograft mice. To be noted: mouse, in vivo. The source says:
Immunohistochemistry was used to verify the distribution of Fc-endostatin in ASPC-1 xenograft mice after treatments. (A) The exogenous endostatin was detected by Alexa 488-labeled antibody (green) and vessel marker, CD31 was used and detected by Alexa 594-labeled antibody (red) in tumor, heart and kidney. (B) α-SMA, pericyte marker (red) was used to confirm the endostatin binding to tumor vessels. (C) Exogenous endostatin (green) distribution is similar to fibronectin (red) in tumor. […] (D) Endogenous collagen 18 (green) and fibronectin (red) were detected by polyclonal antibodies against endostatin and fibronectin in non-treated animal tumor. (E) Staining of Fc-endostatin and integrin α5β1. (F) Staining of vW and integrin α5β1. (G) E14.5 mouse brain embryonic sections were used to verify the distribution of fibronectin, VEGF and Fc-endostatin (Bar, 100 μm).
1.6 Immunohistochemistry. Tumors sections were rinsed by cold PBS and fixed with 4% paraformaldehyde for 10 min with before staining. Human Fc-endostatin was detected by Alexa 488 anti-human IgG. Antibodies to collagen 18 (R&D), fibronectin (R&D), integrin α5 (R&D) CD31 (BD Pharmingen, San Jose, CA) and von Willebrand Factor (Dako, Carpinteria, CA), α-SMA (Dako, Carpinteria, CA) were used for staining. The primary antibodies were detected by Alexa 488 or 594-labeled secondary antibodies (Molecular Probes, Eugene, OR). The sections were imaged by confocal-microscopy (model DM IRE2: Leica).
Immunofluorescence (IF) analysis was used to verify the systemic distribution of hFc-endostatin in an ASPC-1 xenograft animal model. […] In addition to CD31 (endothelial cell) staining, the pericyte marker, α-SMA was used to confirm the interaction of endostatin with blood vessels (FIG. 2B). To examine binding of endostatin to fibronectin, hFc-endostatin treated tumor sections of xenograft models were prepared. […] Co-localization of endogenous collagen 18 and endogenous fibronectin has also been detected (FIG. 2D). […] In addition, ex vivo E14.5 mouse brain embryonic sections were used to confirm this phenomenon. […]

B1: Fc-endostatin: human endostatin with the Fc domain at its N-terminus, expressed in NS/0 cells (protein)
chain: HSHRDFQPVLHLVALNSPLSGGMRGIRGADFQCFQQARAVGLAGTFRAFLSSRLQDLYSIVRRADRAAVPIVNLKDELLFPSWEALFSGSEGPLKPGARIFSFDGKDVLRHPTWPQKSVWHGSDPNGRRLTESYCETWRTEAPSATGQASSLLGGRLLGQSAASCHHAYIVLCIENSFMTASK
modifications: left off: a dimerising Fc or GST
notes: human endostatin with the Fc domain at its N-terminus, expressed in NS/0 cells
Regarding B1, the “smaller dose required for the same tumor reduction vs endostatin alone” value in data set [1] was 50-100 fold. Further, the “tumor growth, passage 4 (P4)” value in the data set on Lewis Lung Cancer tumors (continuous exposure over four passages) is given as “growing even faster than non-treated control p4 tumors”. In addition, the “tumor growth, first passage (p1)” value with Lewis Lung Cancer tumors (p1) is “strong initial inhibition of tumor growth”. The half-life in circulation entry in data set [2] is “longer half-life than endostatin”. Besides, the half-life in circulation entry in data set [2] (listed as endostatin fused to the Fc domain of an IgG antibody) is recorded as “longer than a week”. Further, the “binding to HUVECs” value in the data set on HUVECs (cells cultured only for 24 hours) is “poor binding”. Besides, the “binding to HUVECs” value in the data set on HUVECs (incubation time prolonged to 72 hours) was “significant binding”. In the data set with ASPC-1 xenograft, the “co-localization with fibronectin in tumor sections” value is recorded as “co-localization with endogenous fibronection”; the “co-localization with integrin α5β1” value is reported as “co-localized with integrin α5β1”; the “systemic distribution (antibody to Fc)” value is “found not only in tumor but also in heart and kidney endothelial cells”.
